According to patent US8313778B2, “Drug-delivery systems” (Evonik Roehm GmbH, priority 2005, dated 2012):
carboxyfluorescein = carboxyfluorescein label (N-terminal); fluorescein = fluorescein label

How the values were obtained:
HeLa cells [1] = assay type: cell-based, human; details: flow cytometry (FIG. 5)
Description: Cells and reagents: The human HeLa carcinoma cells used are derived from the American Type Culture Collection (Manassas, Va., USA). HeLa cells were cultured in RPMI 1640 medium with stabilized glutamine and 2.0 g/l NaHCO3 (PAN Biotech, Aidenbach, Germany) and with 10% foetal calf serum (PAN Biotech). Chlorbromazine was purchased from (Calbiochem (Bad Soden, Germany), 5-(N-ethyl-N-isopropyl)amiloride (EIPA), methyl-β-cyclodextrin (MβCD) and MTT [3-(4,5-dimethylthiazol-2-yl)-2,5-diphenyltetrazolium bromide] was purchased from Sigma (Deisenhofen, Germany).
Peptides: The peptides used were synthesized by EMC microcollections (Tübingen, Germany). The purity of all the peptides was checked by analytical HPLC. […]
Stock solution of the peptides: The peptides were taken up in DMSO to result in a 10 mM solution. […] This took place by UV/VIS spectrometry with a 1:100 dilution of the stock solution with 0.1M Tris/HCl buffer (pH 8.8), the absorption at 492 nm was measured, and carboxyfluorescein was assumed to have an extinction coefficient of 75 000 l/(mol·cm). […]
The peptides derived from human or bovine lactoferrin were prepared by solid-phase peptide synthesis. […] In order to determine whether the derived lactoferrin peptides have an activity as cell-penetrating peptides, the cell-associated fluorescence of the HeLa cells incubated with bLF peptides or hLF peptides was determined by flow cytometry. […]

HeLa cells [2] = experiment: Cytotoxicity of hLF peptide, MTT test; assay type: cell-based, human; details: for ability of the cells to survive (MTT test): HeLa cells
Description: However, relatively short incubation times of less than one hour were used when observing peptide uptake in live cells. In addition, therefore, the effect of longer incubation times and higher concentrations of the peptides on the ability of the cells to survive was tested. HeLa cells were for this purpose incubated with hLF peptide at a concentration of 1.25 μM to 160 μm for 0.5 or 6 h. The vitality of the cells was then determined with an MTT test.

Fluo-FQWQRNMRKVR-CONH2 (fluorescein-FQWQRNMRKVR-NH2; listed as Homo sapiens) [LF2]
uptake relative to the amount taken up of hLF peptide (HeLa cells [1]): one-tenth

Fluo-FQWQRNMRKVRGPPVS-CONH2 (fluorescein-FQWQRNMRKVRGPPVS-NH2; listed as Homo sapiens) [LF1]
uptake relative to the amount taken up of hLF peptide (HeLa cells [1]): one-tenth

Fluo-KCFQWQRNMRKVRGPPVSCIKR-CONH2 (carboxyfluorescein-KCFQWQRNMRKVRGPPVSCIKR-NH2; cysteine pairing not given here; listed as Homo sapiens) [hLF peptide]
cytotoxic effects (MTT test) (HeLa cells [2]; HeLa cells incubated for only 30 min, up to a concentration of 40 μM (FIG. 6)): No cytotoxic effects
ability of the cells to survive (MTT test) (HeLa cells [2]; concentrations above 40 μM (FIG. 6)): killed
ability of the cells to survive (MTT test) (HeLa cells [2]; peptide concentration of 5 μM, after 6 h (FIG. 6)): slightly reduced
